Here are results for eleven molecules from article PMC9692563, “The HIV-1 Integrase C-Terminal Domain Induces TAR RNA Structural Changes Promoting Tat Binding”.

Data set [1] deals with Tat (HIV-1 primary isolate 133). Briefly: BLI. The settings on record: EMSA: 20 mM MES pH 6.0, 150 mM NaCl, 2 mM DTT, 2 mM MgCl2, BSA, 8% PEG8000, 37 C 30 min (IN-FLm 2 h at 4 C); BLI: 50 mM HEPES pH 7.5, 200 mM NaCl, 2 mM BME, 5% ….
Data set [2] concerns the target T1, IN-FLm (HIV-1 integrase, mammalian expressed) (HIV-1, UniProt P12497 1148-1435). Nature of the data set: EMSA; similar to wild type; EMSA: 20 mM MES pH 6.0, 150 mM NaCl, 2 mM DTT, 2 mM MgCl2, BSA, 8% PEG8000, 37 C 30 min (IN-FLm 2 h at 4 C); BLI: 50 mM HEPES pH 7.5, 200 mM NaCl, 2 mM BME, 5%. The settings on record: protein: recombinant; tags: N-terminal Flag; label: 5' 32P; hairpin.

In data set [3] the target is T1, IN-FLm (HIV-1 integrase, mammalian …). Nature of the data set: EMSA; EMSA: 20 mM MES pH 6.0, 150 mM NaCl, 2 mM DTT, 2 mM MgCl2, BSA, 8% PEG8000, 37 C 30 min (IN-FLm 2 h at 4 C); BLI: 50 mM HEPES pH 7.5, 200 mM NaCl, 2 mM BME, 5%. The settings on record: protein: recombinant, tags: N-terminal Flag, label: 5' 32P.
The target of data set [4] is T2, IN-CTD (HIV-1, UniProt P12497 1367-1435). The description is as above. The settings on record: protein: recombinant, tags: N-terminal 6xHis, label: 5' 32P.
Data set [5] has as its target T3, IN-CTD-dCT (HIV-1, UniProt P12497 1367-1417). Nature of the data set: EMSA; not affected by stem shortening; EMSA: 20 mM MES pH 6.0, 150 mM NaCl, 2 mM DTT, 2 mM MgCl2, BSA, 8% PEG8000, 37 C 30 min (IN-FLm 2 h at 4 C); BLI: 50 mM HEPES pH 7.5, 200 mM NaCl, 2 mM BME, 5%. Particulars: protein: recombinant; tags: N-terminal 6xHis; label: 5' 32P; hairpin.
The target of data set [6] is T3, IN-CTD-dCT. Briefly: EMSA; EMSA: 20 mM MES pH 6.0, 150 mM NaCl, 2 mM DTT, 2 mM MgCl2, BSA, 8% PEG8000, 37 C 30 min (IN-FLm 2 h at 4 C); BLI: 50 mM HEPES pH 7.5, 200 mM NaCl, 2 mM BME, 5%. The settings on record: protein: recombinant; tags: N-terminal 6xHis; label: 5' 32P; hairpin with bulge and hexaloop.
The target in data set [7] is IN-FL (integrase, E. coli) (HIV-1 NL4-3 (pNL4-3), UniProt P12497 1148-1435). The description is as above. Particulars: protein: recombinant; tags: N-terminal 6xHis; label: 5' 32P; hairpin with bulge and hexaloop.
Data set [8] deals with T2, IN-CTD. Briefly: BLI; 200 mM NaCl, 37 C; EMSA: 20 mM MES pH 6.0, 150 mM NaCl, 2 mM DTT, 2 mM MgCl2, BSA, 8% PEG8000, 37 C 30 min (IN-FLm 2 h at 4 C); BLI: 50 mM HEPES pH 7.5, 200 mM NaCl, 2 mM BME, 5%. The settings on record: protein: recombinant; tags: N-terminal 6xHis; label: 3' biotin; hairpin.
Data set [9] concerns the target T3, IN-CTD-dCT. The description is as above. Particulars: protein: recombinant; tags: N-terminal 6xHis; label: 3' biotin; hairpin.
Setting [10] is: hairpin with bulge and hexaloop.

“GGGCCAGAUCUGAGCCUGGGAGCUCUCUGGCCC [Bt-TAR]” showed a Kd in data set [1] of 1490 nM.

In the case of “CGUCCAUCUGGUCAUCUAGUGAUAUCAUCG [Bt-RNA(30)-mer]”, the Kd in [1] came out at 3840 nM.

B1: TAR-LS (structured_RNA)
RNA: GGGUCUCUCUGGUUAGACCAGAUCUGAGCGCUGGGACGCUCUCUGGCUAACUAGGGAACCC
For the molecule B1, the binding result in [2] is “binds”.

B2: RNA(30)-mer (ssRNA)
RNA: CGUCCAUCUGGUCAUCUAGUGAUAUCAUCG
For the molecule B2, the binding result in [3] (weakly structured) is recorded as “binds”.

B3: SD/Psi (structured_RNA)
RNA: GGGCGACUGGUCAGUACGCCAAAAAUUUUGACUAGCGGAGGCUAGAAGGAG
Consider B3, for which the binding result in the data set with IN-CTD [4] (hairpin) is “binds”.

B4: TAR-VSS (structured_RNA)
RNA: GGGUCUCUCUGGUUAGACCAGAUCUGAGCGCUCUCUGGCUAACUAGGGAACCC
As to B4, the binding result with IN-CTD-dCT [5] was “binds”.

B5: DIS (structured_RNA)
RNA: GGGCUCGGCUUGCUGAAGCGCGCACGGCAAGAGGCGAG
Regarding B5, the binding result in the data set with IN-CTD [4] (hairpin) is reported as “binds”.

B6: TAR (structured_RNA)
RNA: GGGUCUCUCUGGUUAGACCAGAUCUGAGCCUGGGAGCUCUCUGGCUAACUAGGGAACCC
As to B6, the binding result (in data set [3] (setting [10]); with IN-CTD [4] (setting [10]); in the data set with IN-CTD-dCT [6]; in data set [7]) was “binds” throughout.

B7: polyA (structured_RNA)
RNA: GGGCACUGCUUAAGCCUCAAUAAAGCUUGCCUUGAGUGCUUCAAGUAGUG
Turning to B7, the binding result with IN-CTD [4] (hairpin) is given as “binds”.

B8: Bt-TAR (structured_RNA)
RNA: GGGCCAGAUCUGAGCCUGGGAGCUCUCUGGCCC
In the case of B8, the Kd in the data set with IN-CTD [8] worked out at 320 nM; with IN-CTD-dCT [9] it was 770 nM.

B9: TAR-SS (structured_RNA)
RNA: GGGUCUCUCUGGUUAGACCAGAUCUGAGCUGGGACUCUCUGGCUAACUAGGGAACCC
As to B9, the binding result in the data set with IN-CTD-dCT [5] is “binds”.
